Laboratory results published in US5624818, “Nucleic acids encoding regulatory proteins that dimerize with Mad or Max” (Fred Hutchinson Cancer Research Center).

What was measured:
c-Myc:Max heterodimer = c-Myc:Max heterodimer (Homo sapiens, UniProt P01106-1;P61244-2 P01106-1:1-439,P61244-2:1-151); assay: EMSA; supershifted by anti-Myc and anti-Max; 3 mM MgCl2, 50 mM KCl, RT; 5-fold excess cold CM-1 competes; conditions: label: 32P
c-Myc deltaN100:Max = c-Myc deltaN100:Max (Homo sapiens, UniProt P01106-1;P61244-2 P01106-1:101-439,P61244-2:1-151, c-Myc deletion of N-terminal 100 aa); assay: EMSA; conditions: label: 32P
Sequence of c-Myc deltaN100:Max (P01106 116-454, stated change not applied, chain 1 of 2): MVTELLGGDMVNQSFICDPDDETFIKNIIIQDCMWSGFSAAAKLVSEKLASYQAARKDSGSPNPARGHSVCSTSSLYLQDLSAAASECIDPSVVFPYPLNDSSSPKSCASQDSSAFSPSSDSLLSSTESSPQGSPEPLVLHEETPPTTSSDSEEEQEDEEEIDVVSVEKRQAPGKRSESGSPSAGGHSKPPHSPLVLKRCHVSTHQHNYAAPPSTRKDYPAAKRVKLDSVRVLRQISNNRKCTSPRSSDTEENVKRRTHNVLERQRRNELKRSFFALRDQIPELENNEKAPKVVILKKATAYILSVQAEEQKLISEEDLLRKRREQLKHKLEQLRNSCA
Sequence of c-Myc deltaN100:Max (P61244 other isoform, or with tags, fused parts or gaps c-Myc deletion of N-terminal 100 aa | mutant, chain 2 of 2): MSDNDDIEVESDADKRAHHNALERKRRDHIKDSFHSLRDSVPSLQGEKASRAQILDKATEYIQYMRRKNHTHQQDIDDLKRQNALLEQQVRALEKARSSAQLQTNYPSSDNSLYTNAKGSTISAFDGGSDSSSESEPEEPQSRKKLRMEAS

[1] = biological target: GST-C92Myc:Max heterodimer (Homo sapiens, UniProt P01106;P61244-2 P01106:363-454,P61244-2:1-151); assay: EMSA; heterodimer favored over Max:Max; conditions: tags: GST on Myc; label: 32P
Sequence of GST-C92Myc:Max heterodimer (P01106 363-454, chain 1 of 2): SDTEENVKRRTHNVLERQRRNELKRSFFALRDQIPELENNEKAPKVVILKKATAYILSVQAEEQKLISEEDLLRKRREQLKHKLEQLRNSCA
Sequence of GST-C92Myc:Max heterodimer (P61244 other isoform, or with tags, fused parts or gaps, chain 2 of 2): as the sequence (P61244 other isoform, or with tags, fused parts or gaps c-Myc deletion of N-terminal 100 aa | mutant, chain 2 of 2) above

Mad-1-His6 full length = Mad-1-His6 full length (Homo sapiens, UniProt Q05195 SEQ:1-221); assay: EMSA; no Max present; conditions: tags: C-terminal His6 (pET11D); label: 32P
Sequence of Mad-1-His6 full length (Q05195 whole entry): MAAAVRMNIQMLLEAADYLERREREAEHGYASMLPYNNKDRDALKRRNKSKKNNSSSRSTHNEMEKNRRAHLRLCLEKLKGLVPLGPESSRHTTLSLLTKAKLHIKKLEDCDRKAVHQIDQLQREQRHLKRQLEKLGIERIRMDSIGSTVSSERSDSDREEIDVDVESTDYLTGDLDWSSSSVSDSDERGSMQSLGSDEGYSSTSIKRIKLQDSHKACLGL

Sequence of c-Myc:Max heterodimer (P01106 16-454, chain 1 of 2): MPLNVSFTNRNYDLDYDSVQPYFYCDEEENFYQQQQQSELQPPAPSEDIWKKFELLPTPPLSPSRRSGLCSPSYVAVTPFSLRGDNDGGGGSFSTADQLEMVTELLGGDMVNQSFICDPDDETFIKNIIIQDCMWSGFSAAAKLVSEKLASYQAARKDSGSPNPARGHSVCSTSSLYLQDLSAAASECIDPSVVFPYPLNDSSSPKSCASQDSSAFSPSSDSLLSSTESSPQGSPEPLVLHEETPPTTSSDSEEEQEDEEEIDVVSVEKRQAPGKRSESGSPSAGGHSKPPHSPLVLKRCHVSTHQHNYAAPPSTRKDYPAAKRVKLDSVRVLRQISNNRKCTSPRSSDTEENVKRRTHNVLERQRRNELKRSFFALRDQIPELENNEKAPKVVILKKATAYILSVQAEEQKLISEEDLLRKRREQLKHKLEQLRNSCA
Sequence of c-Myc:Max heterodimer (P61244 other isoform, or with tags, fused parts or gaps, chain 2 of 2): as the sequence (P61244 other isoform, or with tags, fused parts or gaps c-Myc deletion of N-terminal 100 aa | mutant, chain 2 of 2) above

B1: CM-1 (dsDNA)
DNA 1: CCCCCACCACGTGGTGCCTGA
DNA 2: TCAGGCACCACGTGGTGGGGG
B1: binds (c-Myc:Max heterodimer); binds (c-Myc deltaN100:Max); binds [1]. B1: no binding (Mad-1-His6 full length).
